According to patent US20240116985A1, “STAPLED PEPTIDES AND METHODS THEREOF” (priority 2020, published 2024):
Starred links: 1 amine or outer side, 2 acyl side, 3 side chain; linkers in the order of their positions; H or OH if unused. Positions of bridges follow the written chain, without caps; N, C: chain ends. Non-standard residues stand in square brackets, D forms with d. Primed or numbered codes have the meaning given here. *: point of attachment. PyrS2″ = (S)-3-amino-1-((pent-4-en-1-yloxy)carbonyl)pyrrolidine-3-carboxylic acid (stapling residue), C=CCCCOC(=O)N1CC[C@@](N[*:1])(C(=O)[*:2])C1; B5(4) = 2,2-bis(4-pentenyl)glycine = 2-amino-2-(pent-4-en-1-yl)hept-6-enoic acid (stitching residue), C=CCCCC(CCCC=C)(N[*:1])C(=O)[*:2]; B5(5) = 2,2-bis(4-pentenyl)glycine, 2-amino-2-(pent-4-en-1-yl)hept-6-enoic acid (stitching residue), C=CCCCC(CCCC=C)(N[*:1])C(=O)[*:2]; TfeGA(3) = (S)-2-amino-3-((carboxymethyl)(2,2,2-trifluoroethyl)amino)prop[anoic acid], O=C([C@H](CN(CC(=O)[*:3])CC(F)(F)F)N[*:1])[*:2]; PyrS2 = (S)-3-amino-1-((pent-4-en-1-yloxy)carbonyl)pyrrolidine-3-carboxylic acid, C=CCCCOC(=O)N1CC[C@@](N[*:1])(C(=O)[*:2])C1; B5(7) = 2-amino-2-(pent-4-en-1-yl)hept-6-enoic acid, two olefinic side chains, C=CCCCC(CCCC=C)(N[*:1])C(=O)[*:2]; Phe(4-COOH) = N[C@@H](Cc1ccc(C(=O)O)cc1)C(=O)O; Ala(2-furyl) = N[C@@H](Cc1ccco1)C(=O)O; dαMeGly(allyl) = C=CC[C@@](C)(N)C(=O)O; Bta = N[C@@H](Cc1csc2ccccc12)C(=O)O; Lys(iPr) = CC(C)NCCCC[C@H](N)C(=O)O; αAllylPro = C=CC[C@@]1(C(=O)O)CCCN1; tBuAla = CC(C)(C)C[C@H](N)C(=O)O; 2Thi = N[C@@H](Cc1cccs1)C(=O)O; 3Thi = N[C@@H](Cc1ccsc1)C(=O)O; Cit = NC(=O)NCCC[C@H](N)C(=O)O; S8 = C=CCCCCCC[C@](C)(N)C(=O)O; Dab = NCC[C@H](N)C(=O)O; Abu = CC[C@H](N)C(=O)O; Dap = NC[C@H](N)C(=O)O; Acryloyl = C=CC(=O)*

B1: I-1993 (peptide)
peptide: Ac-PD[tBuAla][dαMeGly(allyl)]DDAAFL[PyrS2][3Thi][Bta]Q-NH2
modifications: staple 4-11; not fully specified; printed as Ac-Pro-Asp-Npg-R3-Asp-Asp-Ala-Ala-Phe-Leu-PyrS2-3Thi-BztA-Gln-NH2; also: staple -CH=CH- reduced to -CH2-CH2-
B2: I-2005 (peptide)
peptide: Ac-[αAllylPro]D[tBuAla][B5(4)]NT[Lys(iPr)]AFN[PyrS2″][3Thi][Bta]Q-NH2
modifications: staple 1-4, 4-11; not fully specified; printed as Ac-PL3-Asp-Npg-B5-Asn-Thr-iPrLys-Ala-Phe-Asn-PyrS2-3Thi-BztA-Gln-NH2
B3: I-2003 (peptide)
peptide: Ac-[αAllylPro]DA[B5(4)]NTAAFN[PyrS2″][3Thi][Bta]Q-NH2
modifications: staple 1-4, 4-11; not fully specified; printed as Ac-PL3-Asp-Ala-B5-Asn-Thr-Ala-Ala-Phe-Asn-PyrS2-3Thi-BztA-Gln-NH2
B4: I-2002 (peptide)
peptide: Ac-[αAllylPro]DA[B5(4)]NTAAFN[PyrS2″][3Thi][Bta]Q-NH2
modifications: staple 1-4, 4-11; not fully specified; printed as Ac-PL3-Asp-Ala-B5-Asn-Thr-Ala-Ala-Phe-Asn-PyrS2-3Thi-BztA-Gln-NH2
B5: I-2004 (peptide)
peptide: Ac-[αAllylPro]D[tBuAla][B5(4)]NT[Lys(iPr)]AFN[PyrS2″][3Thi][Bta]Q-NH2
modifications: staple 1-4, 4-11; not fully specified; printed as Ac-PL3-Asp-Npg-B5-Asn-Thr-iPrLys-Ala-Phe-Asn-PyrS2-3Thi-BztA-Gln-NH2

Molecular target: full-length beta-Catenin (Uniprot ID P35222) (Homo sapiens (Human)) (UniProt P35222)
Experiment: fluorescence polarization competition; full-length beta-catenin, competitor 5FAM-TCF4(10-53) probe

Binder	EC50 [nM]
Ac-[αAllylPro]D[tBuAla][B5(7)]DDAAFQ[PyrS2][3Thi][Bta]H-NH2 (staple 1-4, 4-11) [I-772]	7
Ac-[αAllylPro]D[tBuAla][B5(7)]DDAAFQ[PyrS2][3Thi][Bta]H-NH2 (staple 1-4, 4-11) [I-771]	5
Ac-[αAllylPro]DI[B5(5)]D[Phe(4-COOH)]AAFQ[S8]F[Bta]Q-NH2 (staple 1-4, 4-11; also: staple isomer, earlier eluting HPLC peak) [I-606]	289
Ac-[αAllylPro]D[tBuAla][B5(7)]DDAAFQ[PyrS2][3Thi][Bta]Q-NH2 (staple 1-4, 4-11) [I-764]	14
Ac-[αAllylPro]DI[B5(5)]D[Phe(4-COOH)]AAFQ[S8]F[Bta]Q-NH2 (staple 1-4, 4-11) [I-607]	253
Ac-[αAllylPro]D[tBuAla][B5(7)]DDAAFQ[PyrS2][3Thi][Bta]Q-NH2 (staple 1-4, 4-11) [I-763]	5
Ac-[αAllylPro]DI[B5(5)]D[Cit]AAFQ[S8]F[Bta]Q-NH2 (staple 1-4, 4-11; also: staple isomer, earlier eluting HPLC peak) [I-604]	692
Ac-[αAllylPro]DI[B5(5)]D[Cit]AAFQ[S8]F[Bta]Q-NH2 (staple 1-4, 4-11) [I-605]	632

Molecular target: full-length beta-Catenin (Uniprot ID P35222) (Homo sapiens (Human)) (UniProt P35222)
Experiment: fluorescence polarization competition; full-length beta-catenin with 5FAM-TCF4(10-53) probe as competitor

Binder	IC50 [nM]
Ac-[αAllylPro]D[tBuAla][B5(7)]DDAAFQ[PyrS2][3Thi][Bta]H-NH2 (staple 1-4, 4-11) [I-772]	7
Ac-[αAllylPro]D[tBuAla][B5(7)]DDAAFQ[PyrS2][3Thi][Bta]H-NH2 (staple 1-4, 4-11) [I-771]	5
Ac-[αAllylPro]DI[B5(5)]D[Phe(4-COOH)]AAFQ[S8]F[Bta]Q-NH2 (staple 1-4, 4-11; also: staple isomer, earlier eluting HPLC peak) [I-606]	289
Ac-[αAllylPro]D[Abu][B5(4)]DEAAFN[S8]F[Bta]Q-NH2 (staple 1-4, 4-11) [I-474]	43
Ac-[αAllylPro]DI[B5(4)]DDAAFQ[S8]F[Bta][Dab]-NH2 (staple 1-4, 4-11) [I-482]	118
Ac-[αAllylPro]DA[B5(4)]D[TfeGA(3)]AAFQ[S8]F[Bta]H-NH2 (staple 1-4, 4-11) [I-499]	123
Ac-[αAllylPro]D[tBuAla][B5(7)]DDAAFQ[PyrS2][3Thi][Bta]Q-NH2 (staple 1-4, 4-11) [I-764]	14
Ac-[αAllylPro]DI[B5(5)]D[Phe(4-COOH)]AAFQ[S8]F[Bta]Q-NH2 (staple 1-4, 4-11) [I-607]	253
Ac-[αAllylPro]DA[B5(4)]DEAA[2Thi]Q[S8]F[Bta]Q-NH2 (staple 1-4, 4-11; also: later eluting isomer) [I-487]	45
Ac-[αAllylPro]D[tBuAla][B5(7)]DDAAFQ[PyrS2][3Thi][Bta]Q-NH2 (staple 1-4, 4-11) [I-763]	5
Ac-[αAllylPro]DI[B5(4)]DDAAFQ[S8][Dap](Acryloyl)[Bta]Q-NH2 (staple 1-4, 4-11; also: later eluting isomer) [I-484]	5000
Ac-[αAllylPro]DI[B5(5)]D[Cit]AAFQ[S8]F[Bta]Q-NH2 (staple 1-4, 4-11; also: staple isomer, earlier eluting HPLC peak) [I-604]	692
Ac-[αAllylPro]DI[B5(4)]DEAA[2Thi]Q[S8]F[Bta]H-NH2 (staple 1-4, 4-11) [I-488]	43
Ac-[αAllylPro]DA[B5(4)]DEAAFQ[S8]F[Bta][Ala(2-furyl)]-NH2 (staple 1-4, 4-11) [I-490]	88
Ac-[αAllylPro]DA[B5(4)]DEAA[2Thi]Q[S8]F[Bta]Q-NH2 (staple 1-4, 4-11; also: earlier eluting isomer) [I-486]	147
Ac-[αAllylPro]DI[B5(5)]D[Cit]AAFQ[S8]F[Bta]Q-NH2 (staple 1-4, 4-11) [I-605]	632
Ac-[αAllylPro]D[Abu][B5(4)]DEAAFN[S8]F[Bta]Q-NH2 (staple 1-4, 4-11) [I-473]	121
Ac-[αAllylPro]DI[B5(4)]DDAAFQ[S8][Dap](Acryloyl)[Bta]Q-NH2 (staple 1-4, 4-11; also: earlier eluting isomer) [I-483]	5000
Ac-[αAllylPro]DI[B5(4)]DDAA[2Thi]Q[S8]F[Bta]H-NH2 (staple 1-4, 4-11) [I-489]	57

Molecular target: full-length beta-Catenin (Uniprot ID P35222) (Homo sapiens (Human)) (UniProt P35222)
Experiment: fluorescence polarization competition; displacement of 5FAM-TCF4(10-53) from full-length beta-catenin
Target sequence in this assay (P35222 whole entry): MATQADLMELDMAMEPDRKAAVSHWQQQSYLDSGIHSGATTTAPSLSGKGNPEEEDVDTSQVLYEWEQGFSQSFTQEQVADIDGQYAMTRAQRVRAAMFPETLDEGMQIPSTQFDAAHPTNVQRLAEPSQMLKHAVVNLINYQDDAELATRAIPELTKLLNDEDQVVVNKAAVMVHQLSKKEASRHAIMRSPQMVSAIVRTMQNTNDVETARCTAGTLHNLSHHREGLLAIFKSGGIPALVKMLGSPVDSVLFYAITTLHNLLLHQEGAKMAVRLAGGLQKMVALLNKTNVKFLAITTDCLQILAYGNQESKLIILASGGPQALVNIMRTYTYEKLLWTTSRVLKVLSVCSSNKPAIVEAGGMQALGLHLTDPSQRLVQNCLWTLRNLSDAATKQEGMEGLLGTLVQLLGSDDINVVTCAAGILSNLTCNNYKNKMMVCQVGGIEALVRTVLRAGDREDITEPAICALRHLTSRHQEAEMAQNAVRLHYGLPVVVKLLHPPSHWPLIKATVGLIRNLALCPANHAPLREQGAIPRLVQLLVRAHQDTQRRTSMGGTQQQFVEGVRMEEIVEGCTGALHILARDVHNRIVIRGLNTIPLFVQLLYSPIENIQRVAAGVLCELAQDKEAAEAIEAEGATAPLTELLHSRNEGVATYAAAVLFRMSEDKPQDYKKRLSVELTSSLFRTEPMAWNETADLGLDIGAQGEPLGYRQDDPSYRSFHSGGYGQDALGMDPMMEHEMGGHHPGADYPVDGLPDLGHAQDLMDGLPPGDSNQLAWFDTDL

Binder	EC50 [nM]
Ac-[αAllylPro]D[Abu][B5(4)]DEAAFN[S8]F[Bta]Q-NH2 (staple 1-4, 4-11) [I-474]	43
Ac-[αAllylPro]DI[B5(4)]DDAAFQ[S8]F[Bta][Dab]-NH2 (staple 1-4, 4-11) [I-482]	118
Ac-[αAllylPro]DA[B5(4)]D[TfeGA(3)]AAFQ[S8]F[Bta]H-NH2 (staple 1-4, 4-11) [I-499]	123
Ac-[αAllylPro]DA[B5(4)]DEAA[2Thi]Q[S8]F[Bta]Q-NH2 (staple 1-4, 4-11; also: later eluting isomer) [I-487]	45
Ac-[αAllylPro]DI[B5(4)]DDAAFQ[S8][Dap](Acryloyl)[Bta]Q-NH2 (staple 1-4, 4-11; also: later eluting isomer) [I-484]	5000
Ac-[αAllylPro]DI[B5(4)]DEAA[2Thi]Q[S8]F[Bta]H-NH2 (staple 1-4, 4-11) [I-488]	43
Ac-[αAllylPro]DA[B5(4)]DEAAFQ[S8]F[Bta][Ala(2-furyl)]-NH2 (staple 1-4, 4-11) [I-490]	88
Ac-[αAllylPro]DA[B5(4)]DEAA[2Thi]Q[S8]F[Bta]Q-NH2 (staple 1-4, 4-11; also: earlier eluting isomer) [I-486]	147
Ac-[αAllylPro]D[Abu][B5(4)]DEAAFN[S8]F[Bta]Q-NH2 (staple 1-4, 4-11) [I-473]	121
Ac-[αAllylPro]DI[B5(4)]DDAAFQ[S8][Dap](Acryloyl)[Bta]Q-NH2 (staple 1-4, 4-11; also: earlier eluting isomer) [I-483]	5000
Ac-[αAllylPro]DI[B5(4)]DDAA[2Thi]Q[S8]F[Bta]H-NH2 (staple 1-4, 4-11) [I-489]	57

Molecular target: full-length beta-Catenin (Uniprot ID P35222) (Homo sapiens (Human)) (UniProt P35222)
Experiment: fluorescence polarization competition; 10 nM full-length beta-catenin + 10 nM 5FAM-TCF4(10-53) probe
Target sequence in this assay (P35222 whole entry): as above

Binder	IC50 [nM]
B1	728
B2	357
B3	1020
Ac-[αAllylPro]D[tBuAla][B5(4)]NTA[Lys(iPr)]FN[PyrS2″][3Thi][Bta]Q-NH2 (staple 1-4, 4-11) [I-2006]	285
B4	612
B5	227
